From the supplement of paper PMC9170038

Test system: K4 kissing-loop RNA reporter
Test: apparent KD of K4 kissing-loop reporter; higher = weaker reporter binding
Details: Eterna round: R107
Procedure: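 RNA-MaP round R107: designed RNA switches with theophylline, tryptophan, arginine or FMN aptamers are transcribed on-chip within common flanks. They are titrated with a labelled K4 kissing-loop RNA reporter in RNA-MaP buffer (100 mM Tris pH 7.5, 80 mM KCl, 4 mM MgCl2), without ligand or with the indicated ligand. Median apparent KD per design.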

[1] = input ligand: theophylline 20 uM
[2] = input ligand: tryptophan 2.4 mM
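Also: bound reporter read as fluorescence of individual clusters on recovered sequencing chips by microscopy, with normalized cluster intensities fitted with a binding model.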

Sequence	apparent KD of K4 kissing-loop reporter (input ligand: FMN 200 uM) [nM]	apparent KD of K4 kissing-loop reporter (input ligand: arginine 13.2 mM) [nM]	apparent KD of K4 kissing-loop reporter (input ligand: none) [nM]	apparent KD of K4 kissing-loop reporter [1] [nM]	apparent KD of K4 kissing-loop reporter [2] [nM]
AUUAAUUUCAGAGGAUAUGCUUUAUUAUUAUUUUUAAAUAAUAAAUGCAGUGAUGUUGCUUAUUAUGCAGAAGGCUGAUUUAUAA [JR_SSFMNB_Sub014]	119	625	603	586	545
GCUAUGGUAGGAAGGAGCGCUACUUUGUUUUUACGAGUGAUGUUCGGUAGCAGAGUGUUAAAGCAGGUAGGUCGCCUACUAUAGC [Arginine B K4 19]	225	244	244	307	280
AGAGAUAUAUGAGGAUAUGGGAUAGUUAAUGAGUUAGUUUUAGUGUUGUUUGGUUAGUGAUGUUAUUUAGAAGGCGUGAGUGAUG [rxxvgmullin]	106	75.8	81.7	109	71.1
AGGAUCACGUCAGUGAUGUUGACGAGAGAUACCAGAGACGAAAGUCUCCCUUGGCAGCUCAUCGUGAUCCGUGACAAAGGUCACA [Omei KL hio A SS C v4]	338	203	317	278	297
GCAUGUAUGCGAGAGUGAUGUUCAUGGUUUCGAGGACCGGUACGGCCGCCACUCGCGAUCCGGCGUACAAUCGUGAAGUUAUCAU [theeternabot_sameState_KL_Trp_A_42]	736	469	655	542	672
GUAGGAUGAGGAGGAGGAUGAAUUACUGAAGGAGCGCAGAGAAAUGCAGGUAGGUCGCGGUAAAGAAGUAUAGUGAUGUUAUAUC [#09 K4 Arginine A Same State]	775	308	657	526	598
AACACUCUGGGAGUGAUGUUCUCAAAUAACCGAGGACCGGUACGGCCGCCACUCGGAAAAGAGUGAGUCCUACGAAAAGUAGGAC [Omei inspired 3]	225	258	235	264	152
GGAGGUUGGUGCGAUACCAGACCUGCAGUGAUGUUGCGCCAAAGUGAGUGAUGUUCACCGGUCCCUUGGCAGCGCGUCCCUUUAG [Same State Theophylline B GF 15]	848	729	1190	707	860
GGUAGGGCAGCUGCGGAAACGCAGCAUAUCGAGGAUAUCGGGAAACCGAGAAGGCGAGUAGUGAUGUUACUGGUUUAGCCCUACC	444	167	191	196	173
GUGCAGUGAUGUUGCACGAGGAAAGACGAUACCAGCCGUAAAUAAGGCCCUUGGCAGCGUGGGCUAGCAUAAAGUACGCUAGUCU [Mara]	111	115	109	94	97.1
GUCGGGACUCGAGGAUAUCAGUGGAGGCCAGUGAUGUUGGCCGUCCCGGUAGUUAAAAUUUUACCCUGAGAAGGCGAUUUCUGUC [Veceinusqu]	142	128	133	131	138
AAUGAGGACACUUGCAACAGUCCUCGAAUACGAGGACCGGUACGGCCGCCACUCGAUAACUUGCAGUGAUGUUGCAAGUAAGAAU [(T)''-(K)'-(T)'-(T1)-(T2)-(K1)-(K2)_Design2]	227	201	207	258	311
UAUGUACACUGGUAGUGGUACAUCGAGGAAGGAGCGUGCGCAGGCACAGGUAGGUCGCCUCAGCGCACGAGUGAUGUUCGUGGGC [Ceaqu]	308	205	358	262	288
CGUGCCCAGCCGGAUACCAGUGACCCGCUGGGAACCGCGGGCCCAGAGUGAUGUUCGGGACACCCUUGGCAGCCGCCUGGGCGGG [#2 Same State - Theophylline B Attempt #15 (HarryS)]	1020	392	1100	512	453
UUUAUGAUGUCGGCCGCCACUGGAUUAAUAUGUGUGUAAUCUAGUUCUGAGUGAUGUUUAGAGUCCAGGACCGGGACAUUAGUUA [#12 K4 Tryptophan B Exclusion]	719	476	652	832	700
UCUCGGGCCAGUGAUGUUGGCGGCAAGUGGCGAGGACCGGUACGGCCGCCACUCGGCGCAGCAGCGGAGUGAUGUUUCGUGAGUA [Same State Tryptophan A GF 16]	297	1240	1230	387	675
UUUGGAUUGCACUAAGAGCGCAAGCGCCAACGAGGACCGGUACGGCCGCCACUCGCGGAGGAGUCCAGUGAUGUUGGACGGCCCG [Onenusan]	233	359	359	180	172
UAAUUUAUUUCUUUUAUAUAAUAAUCAGAUACCAGUGAUUAAUGUCACCCUUGGCAGCUGUAUAGAGUGAUGUUCUAAUGCUUAA [JR_SSTheophyA_Sub022]	176	169	142	233	147
AUUUGUUACCUUAUAGGAGUGAUGUUCUUGCGAGGACCGGUACGGCCGCCACUCGCGCUGGCGCCUAGCCUCGGACCGUUAAUUC [theeternabot_exclusion_KL_Trp_A_25]	582	325	635	497	431
AAGCAGUCCCUUGUUGUCAUCGAAGAUGAACGAGGACCGGUACGGCCGCCACUCGGAGUGAUGUUCCGAUGGCUGCAAAAUAAAA [MatMod 21 - Jieux - Exclusion - Tryptophan A]	101	96.7	105	101	108
UAAGUCUUAUCGGCCGCCACUCAUUACACGAAGUGAUGUUUCGGGUUUUAGACAAAUAAUUUUUGGAGGACCGGGAUACGAGAAA [theeternabot_sameState_KL_Trp_B_49]	162	113	139	148	114
